Test results reported in patent publication US6436691B1, “Chemical compounds” (Zeneca Limited, priority 1995, dated 2002).

Columns and labels:
[1] = Conversion of Hipp-Asp to hippuric acid by mutant and native human CPB, HPLC assay (Example 6); assay type: biochemical; conditions: 5 hr at 37° C.; 4 μg enzyme; 0.5 mM substrate
Protocol: (§1) Purified mutants of human CPB (D253K and D253R; Examples 1-3) and native human CPB, produced as described in Reference Example 12, were assayed for their ability to convert either hippuryl-L-aspartic acid (Hipp-Asp—Reference Example 2), hippuryl-L-glutamic acid (Hipp-Glu—Reference Example 1) or hippuryl-L-arginine (Sigma Chemical Company—cat no. H6625) to hippuric acid using a HPLC based assay.
(§2) The reaction mixture (250 μl) contained 4 μg human CPB (native or mutant) and 0.5 mM Hipp-Asp or Hipp-Glu in 0.025 M Tris-HCL, pH 7.5. Samples were incubated for 5 hr at 37° C. The reactions were terminated by the addition of 250 μl of 80% methanol, 20% distilled water, 0.2% trifluoro acetic acid and the amount of hippuric acid generated was quantified by HPLC.
(§3) HPLC analysis was carried out using a Hewlett Packard 1090 Series 11 (with diode array) HPLC system. Samples (50 μl) were injected onto a Hichrom Hi-RPB column (25 cm) and separated using a mobile phase of 40% methanol, 60% distilled water, 0.1% trifluoro acetic acid at a flow rate of 1 ml/min. The amount of product (hippuric acid) produced was determined from calibration curves generated with known amounts of hippuric acid (Sigma-H6375). The results are shown in Table 1 and are expressed as the percentage conversion of substrate into product in 5 hr at 37° C. with 4 μg enzyme.

[2] = Conversion of Hipp-Glu to hippuric acid by mutant and native human CPB, HPLC assay (Example 6); assay type: biochemical; conditions: 5 hr at 37° C.; 4 μg enzyme; 0.5 mM substrate
Protocol: as §1, §2, §3

[3] = Conversion of Hipp-Arg to hippuric acid by mutant and native human CPB, HPLC assay (Example 6); assay type: biochemical; conditions: 5 hr at 37° C.; 4 μg enzyme
Protocol: as §1, §2, §3

[4] = Km and kcat of HCPB mutants with Hipp-Asp (Example 7); assay type: biochemical; conditions: Hipp-Asp 0.25-5.0 mM; pH 7.5; 5 h at 37° C.
Protocol: (§4) Hipp-Glu and Hipp-Asp were diluted in range 0.25-8.0 mM and 0.25-5.0 mM respectively in 0.025 M Tris-HCL buffer, pH 7.5. Where necessary substrate samples were adjusted to pH 7.5 with 1M NaOH.
(§5) Samples were incubated for 5 h at 37° C. Reactions were terminated by the addition of 500 μl methanol/distilled water (80/20) containing 0.2% TFA. The amount of hippuric acid produced was quantified by HPLC as described in Example 6.
(§6) Km and Vmax values were calculated using the ENZFITTER software programme (Biosoft, Perkin Elmer).

[5] = Km and kcat of HCPB mutants with Hipp-Glu (Example 7); assay type: biochemical; conditions: Hipp-Glu 0.25-8.0 mM; pH 7.5; 5 h at 37° C.
Protocol: as §4, §5, §6

[6] = Conversion of glutamic acid prodrug to intermediate by mutant and native HCPB, HPLC assay (Example 8); assay type: biochemical; conditions: prodrug 0.25-5.0 mM
[7] = Conversion of Hipp-Glu by purified HCPB mutants, 30 minutes, HPLC (Example 17); assay type: biochemical; conditions: 0.5 mM substrate, 30 minutes at 37° C.
Procedure, shortened: (§7)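 Purified human CPB mutants were incubated with hippuryl-L-Arg, -Glu or -Asp for 30 min at 37 °C, then stopped with acidic aqueous methanol. Hippuric acid was quantified by HPLC (20% methanol/50 mM phosphate pH 6.5, 230 nm). Values are % substrate converted to hippuric acid in 30 min.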

[8] = Conversion of Hipp-Asp by purified HCPB mutants, 30 minutes, HPLC (Example 17); assay type: biochemical; conditions: 0.5 mM substrate, 30 minutes at 37° C.
Procedure, shortened: as §7

[9] = Conversion of Hipp-Arg by purified HCPB mutants, 30 minutes, HPLC (Example 17); assay type: biochemical; conditions: 0.5 mM substrate, 30 minutes at 37° C.
Procedure, shortened: as §7

[10] = Conversion of Hipp-Glu by periplasmic shockate of HCPB mutants, 24 h (Example 18); assay type: biochemical; conditions: shockate concentration in reaction mixture 50 %; 24 h at 37° C.
[11] = Conversion of Hipp-Asp by periplasmic shockate of HCPB mutants, 24 h (Example 18); assay type: biochemical; conditions: shockate concentration in reaction mixture 50 %; 24 h at 37° C.
Procedure, shortened: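 Crude E. coli periplasmic shockate of each HCPB mutant was incubated with substrate for 24 h at 37° C, as neat or diluted shockate (1 in 10 or 1 in 100 for [G251T,D253K]HCPB; 1 in 50 for other mutants). Hippuric acid formed was quantified by HPLC. Values are percent conversion of substrate to product in 24 h.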

[12] = Conversion of Hipp-Arg by periplasmic shockate of HCPB mutants, 24 h (Example 18); assay type: biochemical; conditions: shockate concentration in reaction mixture 50 %; 24 h at 37° C.
Protocol: The activity of [G251T,D253K]HCPB was measured using the assay conditions described in Example 17 but using either 50 μl of a neat or 1 in 10 or 1 in 100 dilution of [G251T,D253K]HCPB crude E.coli periplasmic shockate (shockate) sample in place of purified enzyme. Samples were incubated for 24 h at 37° C. […] For other HCPB mutants, the reaction volume was 250 μl and contained 125 μl of neat shockate or 1 in 50 dilution of shockate. The shockate samples were prepared as described in Example 16. The amount of Hippuric acid produced in 24 h was quantified by HPLC as described in Example 17 and the results are shown in Table 6 and are expressed as the percentage conversion of substrate into product in 24 h at 37° C.

[13] = Conversion of prodrug of Example 24 to drug of Example 25 by HCPB mutants, HPLC (Example 20); assay type: biochemical; conditions: enzyme 15 μg/ml; 0.5 mM prodrug of Example 24; 5 minutes at 37° C.
Procedure, shortened: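 Reactions stopped with MeCN plus 0.2% TFA, with [Q54R,D145A,D253K] and [G251T,D253K]HCPB mutants used at 0.75 μg per reaction. Drug formed from prodrug quantified by HPLC (70% MeCN, 30% water, 0.1% TFA; detection 260 nm) against drug calibration curves.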

[14] = test system: LoVo colorectal tumour cells
[15] = HCPB activity of COS-7 cell supernatants against Hipp-Arg (5 h assay); assay type: biochemical; conditions: COS-7 cell supernatant 250 μl, after activation with trypsin 700 μg/ml
Protocol: Measurements were carried out at 37° C. in 0.25 mM Tris HCl buffer, pH 7.5 using 1 cm path length cuvettes in a total volume of 1.0 ml using a Perkin Elmer Lambda 2 spectrophotometer. Km and Vmax values were calculated using the ENZFITTER software programme (Biosoft, Perkin Elmer). Kcat was calculated from Vmax by dividing by the enzyme concentration in the reaction mixture.
For expression in eukaryotic cells, vectors containing genes capable of expressing preHCPB and the prepro sequence were cotransfected into COS-7 cells. COS cells are an African green monkey kidney cell line, CV-1, transformed with an origin-defective SV40 virus and have been widely used for short-term transient expression of a variety of proteins because of their capacity to replicate circular plasmids containing an SV40 origin of replication to very high copy number. There are two widely available COS cell clones, COS-1 and COS-7. The basic methodology for transfection of COS cells is described by Bebbington in Methods: A Companion to Methods in Enzymology (1991) 2, p. 141. […] Cell supernatants (250 μl) were analysed for HCPB activity against Hipp-Arg (5 h assay) as described in Reference Example 3. […]

B1: D253K HCPB: mature HCPB with aspartate 253 changed to lysine, C-terminal (His)6-c-myc tag (protein, UniProt P15086 111-417, looked up, variant D253K)
Carboxypeptidase B: ATGHSYEKYNKWETIEAWTQQVATENPALISRSVIGTTFEGRAIYLLKVGKAGQNKPAIFMDCGFHAREWISPAFCQWFVREAVRTYGREIQVTELLDKLDFYVLPVLNIDGYIYTWTKSRFWRKTRSTHTGSSCIGTDPNRNFDAGWCEIGASRNPCDETYCGPAAESEKETKALADFIRNKLSSIKAYLTIHSYSQMMIYPYSYAYKLGENNAELNALAKATVKELASLHGTKYTYGPGATTIYPAAGGSKDWAYDQGIRYSFTFELRDTGRYGFLLPESQIRATCEETFLAIKYVASYVLEHLY
modifications: (His)6-c-myc tag
Hipp-Asp (% conversion to Hippuric acid) [1]: 78%
Hipp-Glu (% conversion to Hippuric acid) [2]: 91%
Hipp-Arg (% conversion to Hippuric acid) [3]: <2%
Km [4]: 2.7 mM
kcat, Hipp-Asp [4]: 0.26 s⁻¹
Km [5]: 5.3 mM
kcat, Hipp-Glu [5]: 3.8 s⁻¹
kcat, glutamic acid prodrug [6]: 0.016 s⁻¹
Vmax, glutamic acid prodrug ([6]; enzyme 0.25 mg/ml): 0.000117 mM/s
Hipp-Glu (% conversion) ([7]; enzyme 2.5 μg/ml): 14.6%
Hipp-Glu (% conversion) ([7]; enzyme 25 μg/ml): 79%
Hipp-Asp (% conversion) ([8]; enzyme 2.5 μg/ml): 2.9%
Hipp-Asp (% conversion) ([8]; enzyme 25 μg/ml): 22%
Hipp-Arg (% conversion) ([9]; enzyme 2.5 μg/ml): 0%
Hipp-Arg (% conversion) ([9]; enzyme 25 μg/ml): 0%
Hipp-Glu (% conversion) [10]: 7.4%
Hipp-Asp (% conversion) [11]: 2.0%
Hipp-Arg (% conversion) [12]: 0%
Prodrug Hydrolysis (%) [13]: 70.4%
drug concentration at end of reaction [13]: 0.352 mM
cytotoxicity of the glutamic acid prodrug with enzyme added ([14]; 100 μg enzyme added to assay wells containing glutamic acid prodrug): comparable to that of the active drug
toxicity of prodrug of Example 21 with enzyme added ([14]; 2.4 to 11.75 μg/ml enzyme added to prodrug 500 μM, FIG. 16): matched that seen with 200 μM of the active drug

B2: proHCPB: proHCPB expressed from COS-7 cells (plasmid pMF49), activated with trypsin (protein, UniProt P15086 16-417, looked up)
pro-form: HHGGEHFEGEKVFRVNVEDENHINIIRELASTTQIDFWKPDSVTQIKPHSTVDFRVKAEDTVTVENVLKQNELQYKVLISNLRNVVEAQFDSRVRATGHSYEKYNKWETIEAWTQQVATENPALISRSVIGTTFEGRAIYLLKVGKAGQNKPAIFMDCGFHAREWISPAFCQWFVREAVRTYGREIQVTELLDKLDFYVLPVLNIDGYIYTWTKSRFWRKTRSTHTGSSCIGTDPNRNFDAGWCEIGASRNPCDETYCGPAAESEKETKALADFIRNKLSSIKAYLTIHSYSQMMIYPYSYAYKLGENNAELNALAKATVKELASLHGTKYTYGPGATTIYPAAGGSDDWAYDQGIRYSFTFELRDTGRYGFLLPESQIRATCEETFLAIKYVASYVLEHLY
modifications: pro-form
hydrolysis of the Hipp-Arg substrate [15]: complete hydrolysis
